# Test results reported in patent publication US11202837B2, “Biological materials and uses thereof” (Antikor Biopharma Limited, priority 2014, dated 2021).
# Read-outs that look alike come from different tables or passages of the source. Where a SMILES comes first, the peptide text is derived from it. [ ]: non-standard residue; d: D form. The star is where a group is joined. ξ: configuration not given here. Dolaproine = CO[C@@H]([C@@H]1CCCN1)[C@@H](C)C(=O)O; Dil = CC[C@H](C)[C@H](NC)[C@@H](CC(=O)O)OC; NMe2Val = CC(C)[C@@H](C(=O)*)N(C)C; ξNMe2Val = CC(C)C(C(=O)*)N(C)C; NMeV = CN[CH](C(=O)O)C(C)C; Ava = NCCCCC(=O)O
# How the values were obtained:
# [1] = tested on: U87 cells; assay: Cell killing assay (MTS), U87 cells; assay type: cell-based
# Procedure: (§1) SKBr3, human breast cancer cell line, high HER2 expression levels, up to 1,000,000 receptors per cell [Lazar G A, et al Proc Natl Acad Sci USA. […] When confluency was 70-80%, cells were washed with PBS (2×10 ml) and incubated with trypsin for 5-7 min. Complete media was added and the cells were resuspended by pipetting. The cells were recovered by centrifugation (2 min, 2000 rpm), the supernatant was discarded, and the cells were resuspended in complete DMEM (5 ml). The cells were then counted using a haemocytometer and diluted accordingly. They were plated at 4500 cells/well (200 μl) using attachment factor and incubated overnight at 37° C., 5% CO2 in a humidified atmosphere. U87 is a non-HER2 expressing glioblastoma cell line and was grown in a similar way, plated at 1000 cells/well.
# (§2) The cells were exposed to the various ADCs diluted in complete media for 96 hours at 37° C., 5% CO2 in a humidified atmosphere. Cell viability was measured using the Promega Aqueous Cell-titre-96™ aqueous one solution cell proliferation kit according to manufacturer's instructions. Briefly, the media was removed and 100 μl of complete phenol red free media, pre-combined with MTS reagent, was added to the cells (20 μl of reagent per 100 μl of media). The plates were read on an ELISA plate reader at 490 nm after a 2 hr incubation in the dark (5% CO2, 37° C.).
# (§3) The data (absorption units) were converted to % cell survival by using the untreated controls as the 100% cell survival and the Triton X-100 controls as the 100% cell death. The average absorption value for the latter was subtracted from all the rest of the data in order to get a suitable baseline. The averages were converted to survival and standard error values were obtained for each n value (as a % cell survival). […] Experiments were repeated at least 3 times for each compound tested and a set or an average of the data was plotted and fitted to obtain a dose response curve.
# (§4) The cells were recovered by centrifugation (2 min, 2000 rpm), the supernatant was discarded, and the cells were resuspended in complete McCoy's 5A (5 ml). The cells were then counted using a haemocytometer and diluted accordingly. They were plated at 5000 cells/well (200 μl) using attachment factor and incubated overnight at 37° C., 5% CO2 in a humidified atmosphere. U87 is a non-HER2 expressing glioblastoma cell line [Zitron I M et al (2013) BMC Cancer 13:83] and was grown in a similar way, plated at 1000 cells/well (using DMEM media). BT474 is a HER2 expressing breast cancer cell line [Brockhoff G et al (2007) Cell Prolif 40:488-507] and was grown in a similar way, plated at 7500 cells/well (using RPMI media). NCI-N87 is a HER2 expressing gastric cancer cell line [Yamashita-Kashima Y et al (2013) Oncol. Rep 30:1087-93] and was grown in a similar way, plated at 7500 cells/well (using RPMI media).
# as §2, with “kit (MTS reagent)” for “kit”
# (§5) The data (absorption units) were converted to % cell survival by using the untreated controls as the 100% cell survival and the Triton X-100 controls as the 100% cell death. The average absorption value for the latter was subtracted from all the rest of the data in order to get a suitable baseline. The averages were converted to survival and standard error values were obtained for each n value (as a % cell survival).
# [2] = tested on: SKBr3 cells; assay: Cell killing assay (MTS), SKBr3 cells; assay type: cell-based, human
# Procedure: as §1
# as §2, with “The cells were exposed to the various ADCs diluted in complete media for 96 hours at 37° C., 5% CO2 in a humidified atmosphere.” left out
# as §3, §4
# as §2, with “The cells were exposed to the various ADCs diluted in complete media for 96 hours at 37° C., 5% CO2 in a humidified atmosphere.” left out, “kit (MTS reagent)” for “kit”
# as §5
# [3] = tested on: BT474 cells; assay: Cell killing assay (MTS), BT474 cells; assay type: cell-based, human
# Procedure: as §4
# as §2, with “kit (MTS reagent)” for “kit”
# as §3, with “dose-response” for “dose response”
# [4] = BT474 Cells (HER2++), 96 hours, Table 47
# [5] = BT474 Cells (HER2++), 96 hours, Table 47, read-out: IC50
# [6] = SKBr3 Cells (HER2+++), 96 hours, Table 47
# [7] = SKBr3 Cells (HER2+++), 96 hours, Table 47, read-out: IC50
# [8] = U87 Cells (HER2−), 96 hours, Table 50
# [9] = U87 Cells (HER2−), 96 hours, Table 50, read-out: IC50
# [10] = SKBr3 Cells (HER2 +++), 96 hours, Table 50
molecule,measurement,setting,value
"CC(C)C(NC(=O)C(C(C)C)N(C)C)C(=O)N(C)C(C(=O)N1CCCC1C(=O)N1CCCC1C(=O)NCCCCC(=O)O)C(C)C (stereo not drawn) [Free P5C5 (acid) drug, P5C5] (ξNMe2Val-V[NMeV]PP[Ava]-OH; configuration not given here)",IC50,"[1]; Homo sapiens, U-87 MG, 96 h, read-out: IC50 nM U87 Cells (HER2−)",7300 ± 900 nM
same,IC50,"[2]; Homo sapiens, SK-BR-3, 96 h, read-out: IC50 nM SKBr3 Cells (HER2+++)",2200 ± 400 nM
COc1cc2cc(c1Cl)N(C)C(=O)C[C@H](OC(=O)[C@H](C)N(C)C(=O)CCS)[C@]1(C)O[C@H]1[C@H](C)[C@@H]1C[C@@](O)(NC(=O)O1)[C@H](OC)/C=C/C=C(\C)C2 [Free drug DM1],IC50,"[1]; Homo sapiens, U-87 MG, 96 h, read-out: IC50 nM",50.7 nM
same,IC50,"[2]; Homo sapiens, SK-BR-3, 96 h, read-out: IC50 nM",47.6 nM
CC[C@H](C)[C@@H]([C@@H](CC(=O)N1CCC[C@H]1[C@H](OC)[C@@H](C)C(=O)N[C@@H](Cc1ccccc1)C(=O)O)OC)N(C)C(=O)[C@@H](NC(=O)[C@H](C(C)C)N(C)C)C(C)C [Free drug Auristatin F] (NMe2Val-V[Dil][Dolaproine]F-OH),IC50,"[1]; Homo sapiens, U-87 MG, 96 h, read-out: IC50 pM",> 12.5 nM
same,IC50,"[3]; Homo sapiens, BT-474, 96 h, read-out: IC50 pM",> 2500 pM
same,IC50,"[2]; Homo sapiens, SK-BR-3, 96 h, read-out: IC50 pM",> 5.5 nM
"scFv (TCT)-P5C5, DAR = 12 (conjugate) scFv: SGSGGSGQVQLVQSGAEVKKPGESLKISCKGSGYSFTSYWIAWVRQMPGKGLEYMGLIYPGDSDTKYSPSFQGQVTISVDKSVSTAYLQWSSLKPSDSAVYFCARHDVGYCSSSNCAAWPEYFQHWGQGTLVTVSSGGGGSGGGGSGGGGSQSVLTQPPSVSAAPGQKVTISCSGSSSNIGNNYVSWYQQLPGTAPKLLIYGHTNRPAGVPDRFSGSKSGTSASLAISGFRSEDEADYYCAAWDDSLSGWVFGGGTKLTVLMASMTGGQQMG",IC50 μg/ml U87 Cells (HER2−),[1]; 96 hours exposure,100 µg/mL
same,IC50,"[1]; 96 hours exposure, read-out: IC50 nM U87 Cells (HER2−)",3570 nM
same,IC50 μg/ml SKBr3 Cells (HER2+++),[2]; 96 hours exposure,5.01 ± 1.9 µg/mL
same,IC50,"[2]; 96 hours exposure, read-out: IC50 nM SKBr3 Cells (HER2+++)",179 ± 68 nM
scFv (TCT)-MMAF DAR 8 (conjugate) scFv: SGSGGSGQVQLVQSGAEVKKPGESLKISCKGSGYSFTSYWIAWVRQMPGKGLEYMGLIYPGDSDTKYSPSFQGQVTISVDKSVSTAYLQWSSLKPSDSAVYFCARHDVGYCSSSNCAAWPEYFQHWGQGTLVTVSSGGGGSGGGGSGGGGSQSVLTQPPSVSAAPGQKVTISCSGSSSNIGNNYVSWYQQLPGTAPKLLIYGHTNRPAGVPDRFSGSKSGTSASLAISGFRSEDEADYYCAAWDDSLSGWVFGGGTKLTVLMASMTGGQQMG,IC50 μg/ml,[3]; [4],0.02 µg/mL
same,IC50,[3]; [5],714 pM
same,IC50 μg/ml,[2]; [6],0.0053 µg/mL
same,IC50,[2]; [7],0.189 nM
scFv (TCT1067)-MMAF DAR 8.7 (conjugate) scFv: SGSGGSGQVQLVQSGAEVKKPGESLKISCKGSGYSFTSYWIAWVRQMPGKGLEYMGLIYPGDSDTKYSPSFQGQVTISVDKSVSTAYLQWSSLKPSDSAVYFCARHDVGYCTDRTCAAWPEWLGVWGQGTLVTVSSGGGGSGGGGSGGGGSQSVLTQPPSVSAAPGQKVTISCSGSSSNIGNNYVSWYQQLPGTAPKLLIYGHTNRPAGVPDRFSGSKSGTSASLAISGFRSEDEADYYCASWDYTLSGWVFGGGTKLTVLMASMTGGQQMG,IC50 μg/ml,[3]; [4],0.001 µg/mL
same,IC50,[3]; [5],35.7 pM
same,IC50 μg/ml,[2]; [6],0.00091 µg/mL
same,IC50,[2]; [7],0.0325 nM
scFv (TCT1067)-DM1 DAR 3.5 (conjugate) scFv: SGSGGSGQVQLVQSGAEVKKPGESLKISCKGSGYSFTSYWIAWVRQMPGKGLEYMGLIYPGDSDTKYSPSFQGQVTISVDKSVSTAYLQWSSLKPSDSAVYFCARHDVGYCTDRTCAAWPEWLGVWGQGTLVTVSSGGGGSGGGGSGGGGSQSVLTQPPSVSAAPGQKVTISCSGSSSNIGNNYVSWYQQLPGTAPKLLIYGHTNRPAGVPDRFSGSKSGTSASLAISGFRSEDEADYYCASWDYTLSGWVFGGGTKLTVLMASMTGGQQMG,IC50 μg/ml,[1]; [8],0.641 µg/mL
same,IC50,[1]; [9],22.9 nM
same,IC50 μg/ml,[2]; [10],0.0417 µg/mL
same,IC50,"[2]; SKBr3 Cells (HER2 +++), 96 hours, Table 50, read-out: IC50",1.49 nM
scFv (TCT1067)-DM1 DAR 5.5 (conjugate) scFv: SGSGGSGQVQLVQSGAEVKKPGESLKISCKGSGYSFTSYWIAWVRQMPGKGLEYMGLIYPGDSDTKYSPSFQGQVTISVDKSVSTAYLQWSSLKPSDSAVYFCARHDVGYCTDRTCAAWPEWLGVWGQGTLVTVSSGGGGSGGGGSGGGGSQSVLTQPPSVSAAPGQKVTISCSGSSSNIGNNYVSWYQQLPGTAPKLLIYGHTNRPAGVPDRFSGSKSGTSASLAISGFRSEDEADYYCASWDYTLSGWVFGGGTKLTVLMASMTGGQQMG,IC50 μg/ml,[1]; [8],0.419 µg/mL
same,IC50,[1]; [9],14.9 nM
same,IC50 μg/ml,[2]; [10],0.0078 µg/mL
scFv (TCT1067)-P5C5 DAR 12.5 (conjugate) scFv: SGSGGSGQVQLVQSGAEVKKPGESLKISCKGSGYSFTSYWIAWVRQMPGKGLEYMGLIYPGDSDTKYSPSFQGQVTISVDKSVSTAYLQWSSLKPSDSAVYFCARHDVGYCTDRTCAAWPEWLGVWGQGTLVTVSSGGGGSGGGGSGGGGSQSVLTQPPSVSAAPGQKVTISCSGSSSNIGNNYVSWYQQLPGTAPKLLIYGHTNRPAGVPDRFSGSKSGTSASLAISGFRSEDEADYYCASWDYTLSGWVFGGGTKLTVLMASMTGGQQMG,IC50 μg/ml,"[3]; BT474 Cells (HER2++), 96 hours, Table 48",0.3 µg/mL
same,IC50,"[3]; BT474 Cells (HER2++), 96 hours, Table 48, read-out: IC50",10700 pM
same,IC50 μg/ml,"[2]; SKBr3 Cells (HER2+++), 96 hours, Table 48",0.04 µg/mL
same,IC50,"[2]; SKBr3 Cells (HER2+++), 96 hours, Table 48, read-out: IC50",1.42 nM
